According to FireProtDB (doi:10.1002/prot.340080106):

Conditions: Bos taurus; pH 7; 25 °C; Urea; CD; PIPES-KOH 20 mM; reversible: yes; whole UniProt chain shown

B1: Protein S100-G wild type, P02633 (protein)
chain: MSAKKSPEELKGIFEKYAAKEGDPNQLSKEELKLLLQTEFPSLLKGPSTLDELFEELDKNGDGEVSFEEFQVLVKKISQ
denaturant midpoint (higher = more stable): 5.3 M
unfolding free energy: 0.29 kcal/mol
